Reference: paper PMC11385924

Tests used:
[1] = tested on: Km-AP23 (artificial (CPDiffusion design on KmAgo backbone)); assay: fluorescence polarization; settings: FP: 5 nM FAM-DNA, 0-1500 nM protein, 15 mM Tris-HCl pH 7.4, 200 mM NaCl, 5 mM MnCl2, 37 C, 1 h, EMSA: 1 uM FAM-guide, 2 uM protein
[2] = tested on: KmAgo (Km-WT) (Kurthia massiliensis); assay: fluorescence polarization; settings: FP: 5 nM FAM-DNA, 0-1500 nM protein, 15 mM Tris-HCl pH 7.4, 200 mM NaCl, 5 mM MnCl2, 37 C, 1 h, EMSA: 1 uM FAM-guide, 2 uM protein

Row | Substance | Kd [1] [nM] | Kd [2] [nM]
1 | tDNA (target DNA) | 29.5 | 70
2 | gDNA (guide DNA) | 17 | 65.9
